Assay results taken from publication PMC12217647, “Mid‐Regional Proadrenomedullin Can Be Reliably Measured in Cerebrospinal Fluid to Improve Diagnosis of Central Nervous System Diseases” (Journal of Clinical Laboratory Analysis, 2025).
Where “and” joins values, the source holds several entries; their conditions need not be identical. Identical values can stand only once.

Tests used:
[1] = MR‐proADM stability in CSF at room temperature (B.R.A.H.M.S. MR‐proADM KRYPTOR fluoroimmunoassay); type: in vitro ADME, human
Experimental: (§1) MR‐proADM concentrations were measured in CSF using the B.R.A.H.M.S. MR‐proADM fluoroimmunoassay on the Brahms Kryptor Gold Analyzer (THERMO […], Hennigsdorf, Germany), which is a fully automated homogeneous phase random access platform. The system uses the TRACE (Time‐Resolved Amplified Cryptate Emission) technology to measure the fluorescence signal emitted by an immunocomplex. MR‐proADM results are expressed in nmol/L. The declared linearity in plasma EDTA samples ranges from 0.21 to 100 nmol/L, with a maximum bias of ±20%. The manufacturer's reference range for EDTA plasma samples is < 0.56 nmol/L, corresponding to the 97.5th percentile of a control series, which disclosed a median value of 0.38 nmol/L. The Limit of Detection (LoD) is 0.09 nmol/L, while the Limit of Quantitation (LoQ) is 0.21 nmol/L (IFU_B.R.A.H.M.S. MR‐proADM KRYPTOR assay; 07 April 2022; Thermo Scientific, Hennigsdorf, Germany). This MR‐proADM immunoassay is currently certified only for plasma‐EDTA blood samples, and the manufacturer recommends immediate centrifugation to preserve molecular stability at room temperature (18°C–25°C) or at 2°C–8°C up to 24 h. Afterwards, samples should be aliquoted and frozen at −20°C or below. Plasma samples can be kept frozen up to 14 days, and the analyte is considered stable for up to 4 freeze/thaw cycles.
(§2) According to the recommendations in plasma, MR‐proADM was measured in clear CSF samples after centrifugation to avoid interference by cells or other microparticles. Bloody CSF samples were discarded. The first step was aimed at assessing MR‐proADM stability in CSF as a function of different storage temperatures and storage time after collection. To test room temperature stability in CSF, we measured MR‐proADM in 10 fresh samples (T0) and after 12, 24, and 48 h (T1, T2, T3) on the bench (25°C). To test recovery after storage at −20°C, we measured MR‐proADM concentration in 29 CSF samples stored frozen for less than 15, 16 to 60, and more than 60 days. Finally, to test recovery after storage at −80°C, we measured MR‐proADM concentration in 25 CSF samples before and after a variable period of storage at −80°C. The second step of our study was to evaluate the analytical performance of the B.R.A.H.M.S. MR‐proADM method using CSF samples. For this purpose, we evaluated the repeatability and the within‐laboratory precision of this assay. Due to the small amount of CSF volume obtained from each residual sample, 58 CSF samples were pooled in 3 subgroups according to their MR‐proADM values, thus creating 3 pools of about 5 mL volume each, characterized by low, medium, and high MR‐proADM concentration. These pools were finally stored at −20°C.
(§3) To assess the difference between measures of MR‐proADM in fresh samples and after storage at room temperature, at −20°C, and at −80°C, we used the Wilcoxon matched‐paired T test, considering significant p < 0.05.

[2] = MR‐proADM stability in CSF samples stored at −20°C; type: in vitro ADME, human; settings: for Mean difference pre and post freezing: mean of samples
Experimental: as §1
as §2, with “−20°C. […]” for “−20°C.”

[3] = MR‐proADM stability in CSF samples stored at −80°C; type: in vitro ADME, human
Experimental: as §1, §2, §3

[4] = plasma‐EDTA, ref IFU_B.R.A.H.M.S. MR‐proADM KRYPTOR assay, 07 April 2022, cited from earlier work
Experimental: MR‐proADM concentrations were measured in CSF using the B.R.A.H.M.S. MR‐proADM fluoroimmunoassay on the Brahms Kryptor Gold Analyzer (THERMO […], Hennigsdorf, Germany), which is a fully automated homogeneous phase random access platform. The system uses the TRACE (Time‐Resolved Amplified Cryptate Emission) technology to measure the fluorescence signal emitted by an immunocomplex. MR‐proADM results are expressed in nmol/L. The declared linearity in plasma EDTA samples ranges from 0.21 to 100 nmol/L, with a maximum bias of ±20%. The manufacturer's reference range for EDTA plasma samples i ...

[5] = body fluids; statement of the introduction; cited from earlier work

Mid‐regional proADM (ELRMSSSYPTGLADVKAGPAQTLIRPQDMKGASRSPEDSSPDAARIRV; MR-proADM; UniProt P35318 45-92, looked up, fragment) [MR‐proADM]
MR‐proADM concentration, After 12 h ([1]; CSF on the bench at room temperature (25°C) for 12 h, individual samples S1–S10, one line per sample, p = 0.2918 vs fresh): 0.45 nmol/L and 2.67 nmol/L and 0.80 nmol/L and 1.11 nmol/L and 1.23 nmol/L and 0.91 nmol/L and 1.07 nmol/L and 0.96 nmol/L and 1.63 nmol/L | MR‐proADM concentration, After 24 h ([1]; CSF on the bench at room temperature (25°C) for 24 h, individual samples S1–S10, one line per sample, p = 0.6760 vs fresh): 0.51 nmol/L and 2.61 nmol/L and 0.80 nmol/L and 1.15 nmol/L and 1.25 nmol/L and 0.93 nmol/L and 1.09 nmol/L and 0.92 nmol/L and 1.67 nmol/L | MR‐proADM concentration, After 48 h ([1]; CSF on the bench at room temperature (25°C) for 48 h, individual samples S1–S10, one line per sample, p = 0.1515 vs fresh): 0.45 nmol/L and 2.74 nmol/L and 0.78 nmol/L and 1.14 nmol/L and 1.27 nmol/L and 0.93 nmol/L and 1.12 nmol/L and 0.97 nmol/L and 0.99 nmol/L and 1.64 nmol/L | Stability in CSF samples stored at room temperature (in words) ([1]; CSF, 25°C, 12, 24 and 48 h, n = 10 samples, no significant difference from fresh): highly stable | Storage time at room temperature over which MR‐proADM remains highly stable in CSF ([1]; CSF, room temperature (25°C)): ≤ 48 h | MR‐proADM concentration, Fresh ([1]; T0 baseline, clear centrifuged CSF, 10 individual samples S1–S10, one line per sample, TRACE fluoroimmunoassay, Kryptor): 0.45 nmol/L and 2.67 nmol/L and 0.79 nmol/L and 1.15 nmol/L and 1.23 nmol/L and 0.92 nmol/L and 1.07 nmol/L and 0.94 nmol/L and 0.98 nmol/L and 1.65 nmol/L | Mean difference pre and post freezing ([2]; CSF stored at −20°C for less than 15 days): 14.2% | Mean difference pre and post freezing ([2]; CSF stored at −20°C for more than 60 days): 18.6% | Mean difference pre and post freezing ([2]; CSF stored at −20°C from 16 to 60 days): 15.9% | Percentage reduction in some samples ([2]; CSF stored at −20°C, worst cases): up to 50% | Stability in CSF samples stored at −80°C (in words) ([3]; 25 CSF samples, variable storage time at −80°C): quite stable | Decrement, half of the samples ([3]; CSF stored at −80°C, 25 samples): ≤ 10% | Loss of recovery / decrement versus fresh, majority of cases ([3]; CSF stored at −80°C, p < 0.001 vs fresh): less than 10% | Storage time at −80°C with very good stability ([3]; CSF, −80°C): at least 24 months | MR‐proADM concentration, Fresh ([3]; baseline before storage at −80°C, 25 individual CSF samples S1–S25, one line per sample): 0.55 nmol/L and 0.56 nmol/L and 0.77 nmol/L and 0.51 nmol/L and 0.53 nmol/L and 0.59 nmol/L and 0.66 nmol/L and 0.70 nmol/L and 0.89 nmol/L and 1.00 nmol/L and 0.43 nmol/L and 0.57 nmol/L and 0.64 nmol/L and 0.69 nmol/L and 0.75 nmol/L and 0.62 nmol/L and 0.71 nmol/L and 0.73 nmol/L and 0.79 nmol/L and 0.54 nmol/L | Time of molecular stability after centrifugation ([4]; room temperature (18°C–25°C) or 2°C–8°C): up to 24 h | Time plasma samples can be kept frozen ([4]; −20°C or below): up to 14 days | Freeze/thaw cycles over which the analyte is considered stable [4]: up to 4 freeze/thaw cycles | half‐life compared with ADM (in words) [5]: longer half‐life
